Measured values from US10801046B2, “Methods and materials for biosynthesizing multifunctional, multivariate molecules via carbon chain modification” (INVISTA NORTH AMERICA S.A.R.L., priority 2016, dated 2020).

B1: SEQ ID NO: 116: Chromobacterium violaceum aminotransferase (protein, listed as Chromobacterium violaceum)
chain: MQKQRTTSQWRELDAAHHLHPFTDTASLNQAGARVMTRGEGVYLWDSEGNKIIDGMAGLWCVNVGYGRKDFAEAARRQMEELPFYNTFFKTTHPAVVELSSLLAEVTPAGFDRVFYTNSGSESVDTMIRMVRRYWDVQGKPEKKTLIGRWNGYHGSTIGGASLGGMKYMHEQGDLPIPGMAHIEQPWWYKHGKDMTPDEFGVVAARWLEEKILEIGADKVAAFVGEPIQGAGGVIVPPATYWPEIERICRKYDVLLVADEVICGFGRTGEWFGHQHFGFQPDLFTAAKGLSSGYLPIGAVFVGKRVAEGLIAGGDFNHGFTYSGHPVCAAVAHANVAALRDEGIVQRVKDDIGPYMQKRWRETFSRFEHVDDVRGVGMVQAFTLVKNKAKRELFPDFGEIGTLCRDIFFRNNLIMRACGDHIVSAPPLVMTRAEVDEMLAVAERCLEEFEQTLKARGLA
modifications: Chromobacterium violaceum (strain ATCC 12472 / DSM 30191 / JCM 1249 / NBRC 12614 / NCIMB 9131 / NCTC 9757)
notes: Chromobacterium violaceum aminotransferase
B2: SEQ ID NO: 126: Pseudomonas syringae aminotransferase (protein)
chain: MSANNPQTLEWQALSSEHHLAPFSDYKQLKEKGPRIITRAEGVYLWDSEGNKILDGMSGLWCVAIGYGREELADAASKQMRELPYYNLFFQTAHPPVLELAKAISDIAPEGMNHVFFTGSGSEGNDTMLRMVRHYWALKGQPNKKTIISRVNGYHGSTVAGASLGGMTYMHEQGDLPIPGVVHIPQPYWFGEGGDMTPDEFGIWAAEQLEKKILELGVENVGAFIAEPIQGAGGVIVPPDSYWPKIKEILSRYDILFAADEVICGFGRTSEWFGSDFYGLRPDMMTIAKGLTSGYVPMGGLIVRDEIVAVLNEGGDFNHGFTYSGHPVAAAVALENIRILREEKIVERVRSETAPYLQKRLRELSDHPLVGEVRGVGLLGAIELVKDKTTRERYTDKGAGMICRTFCFDNGLIMRAVGDTMIIAPPLVISFAQIDELVEKARTCLDLTLAVLQG
modifications: Pseudomonas syringae pv. syringae (strain B728a)
notes: Pseudomonas syringae aminotransferase

Tests used:
Type in all cases: biochemical
[1] = Aminotransferase activity, 7-aminoheptanol to 7-oxoheptanol, L-alanine formation by RP-HPLC; conditions: cell free extract, 10 mM substrate, 25° C., 4 h, against empty vector control, FIG. 52
Experimental: (§1) A nucleotide sequence encoding an N-terminal His-tag was added to the Chromobacterium violaceum, Pseudomonas syringae and Rhodobacter sphaeroides genes encoding the aminotransferases of SEQ ID NOs: 116 (GenBank Accession No. AAQ59697.1), 126 (GenBank Accession No. AAY39893.1), and 127 (GenBank Accession No. ABA81135.1), respectively such that N-terminal HIS tagged aminotransferases could be produced. The modified genes were cloned into a pET21a expression vector under the T7 promoter. Each expression vector was transformed into a BL21[DE3] E. coli host. Each resulting recombinant E. coli strain were cultivated at 37° C. in a 250 mL shake flask culture containing 50 mL LB media and antibiotic selection pressure, with shaking at 230 rpm. Each culture was induced overnight at 16° C. using 1 mM IPTG.
(§2) The pellet from each induced shake flask culture was harvested via centrifugation. Each pellet was resuspended and lysed via sonication. The cell debris was separated from the supernatant via centrifugation and the cell free extract was used immediately in enzyme activity assays.
Enzyme activity assays in the reverse direction (i.e., 7-aminoheptanol to 7-oxoheptanol) were performed in a buffer composed of a final concentration of 50 mM HEPES buffer (pH=7.5), 10 mM 7-aminoheptanol, 10 mM pyruvate, and 100 μM pyridoxyl 5′ phosphate. […] The formation of L-alanine was quantified via RP-HPLC.

[2] = Aminotransferase activity, heptane-1,7-diamine to 7-aminoheptanal, L-alanine formation by RP-HPLC; conditions: cell free extract, 10 mM substrate, 25° C., 4 h, against empty vector control, FIG. 50
Experimental: as §1, with “A” for “A nucleotide”, “aeruginosa, Pseudomonas syringae, Rhodobacter sphaeroides, Escherichia coli,” for “syringae”, “Vibrio fluvialis” for “Rhodobacter sphaeroides”, “AAQ59697.1), 119 (RefSeq Accession No. NP_417544.5), 125 (GenBank Accession No. AAGO8191.1),” for “AAQ59697.1),”, “AAY39893.1),” for “AAY39893.1), and”, “ABA81135.1), and 128 (GenBank Accession No. AEA39183.1),” for “ABA81135.1),”
as §2
Enzyme activity assays in the reverse direction (i.e., heptane-1,7-diamine to 7-aminoheptanal) were performed in a buffer composed of a final concentration of 50 mM HEPES buffer (pH=7.5), 10 mM heptane-1,7-diamine, 10 mM pyruvate, and 100 μM pyridoxyl 5′ phosphate. Each enzyme activity assay reaction was initiated by adding cell free extract of the aminotransferase gene product or the empty vector control to the assay buffer containing the heptane-1,7-diamine and then incubated at 25° C. for 4 h, with shaking at 250 rpm. The formation of L-alanine was quantified via RP-HPLC.

[3] = Aminotransferase activity, N7-acetyl-1,7-diaminoheptane to N7-acetyl-7-aminoheptanal, L-alanine formation by RP-HPLC; conditions: cell free extract, 10 mM substrate, 25° C., 4 h, against empty vector control, FIG. 51
Experimental: The activity of the N-terminal His-tagged aminotransferases of SEQ ID NOs: 116 (GenBank Accession No. AAQ59697.1), 119 (RefSeq Accession No. NP_417544.5), 125 (GenBank Accession No. AAGO8191.1), 126 (GenBank Accession No. AAY39893.1), 127 (GenBank Accession No. ABA81135.1), and 128 (GenBank Accession No. AEA39183.1) (see Example 6) for converting N7-acetyl-1,7-diaminoheptane to N7-acetyl-7-aminoheptanal was assayed using a buffer composed of a final concentration of 50 mM HEPES buffer (pH=7.5), 10 mM N7-acetyl-1,7-diaminoheptane, 10 mM pyruvate and 100 μM pyridoxyl 5′ phosphate. Each enzyme activity assay reaction was initiated by adding a cell free extract of the aminotransferases or the empty vector control to the assay buffer containing the N7-acetyl-1,7-diaminoheptane then incubated at 25° C. for 4 h, with shaking at 250 rpm. The formation of L-alanine was quantified via RP-HPLC.

[4] = Aminotransferase activity, reverse direction (7-aminoheptanoate to 7-oxoheptanoate), L-alanine formation by RP-HPLC; conditions: cell free extract, 10 mM substrate, 25° C., 4 h, against empty vector control, FIG. 48
Experimental: (§3) A sequence encoding an N-terminal His-tag was added to the genes from Chromobacterium violaceum, Pseudomonas syringae, Rhodobacter sphaeroides, and Vibrio Fluvialis encoding the aminotransferases of SEQ ID NOs: 116 (GenBank Accession No. AAQ59697.1), 126 (GenBank Accession No. AAY39893.1), 127 (GenBank Accession No. ABA81135.1), and 128 (GenBank Accession No. AEA39183.1), respectively such that N-terminal HIS tagged aminotransferases could be produced. Each of the resulting modified genes was cloned into a pET21a expression vector under control of the T7 promoter and each expression vector was transformed into a BL21 [DE3] E. coli host. The resulting recombinant E. coli strains were cultivated at 37° C. in a 250 mL shake flask culture containing 50 mL LB media and antibiotic selection pressure, with shaking at 230 rpm. Each culture was induced overnight at 16° C. using 1 mM IPTG.
as §2
Enzyme activity assays in the reverse direction (i.e., 7-aminoheptanoate to 7-oxoheptanoate) were performed in a buffer composed of a final concentration of 50 mM HEPES buffer (pH=7.5), 10 mM 7-aminoheptanoate, 10 mM pyruvate and 100 μM pyridoxyl 5′ phosphate. Each enzyme activity assay reaction was initiated by adding cell free extract of the aminotransferase gene product or the empty vector control to the assay buffer containing the 7-aminoheptanoate and incubated at 25° C. for 4 h, with shaking at 250 rpm. The formation of L-alanine from pyruvate was quantified via RP-HPLC.

[5] = Aminotransferase activity, forward direction (7-oxoheptanoate to 7-aminoheptanoate), pyruvate formation by RP-HPLC; conditions: cell free extract, 10 mM substrate, 10 mM L-alanine, 25° C., 4 h, against empty vector control, FIG. 49
Experimental: as §3
The pellet from each induced shake flask culture was harvested via centrifugation. Each pellet was resuspended and lysed via sonication. […]
Enzyme activity in the forward direction (i.e., 7-oxoheptanoate to 7-aminoheptanoate) was confirmed for the aminotransferases of SEQ ID NO: 126 (GenBank Accession No. AAY39893.1), SEQ ID NO: 127 (GenBank Accession No. ABA81135.1), and SEQ ID NO: 128 (GenBank Accession No. AEA39183.1). […] The formation of pyruvate was quantified via RP-HPLC.

Row | Molecule | acceptance of 7-aminoheptanol as substrate, forming 7-oxoheptanol [1] | acceptance of heptane-1,7-diamine as substrate, forming 7-aminoheptanal [2] | acceptance of N7-acetyl-1,7-diaminoheptane as substrate, forming N7-acetyl-7-aminoheptanal [3] | acceptance of 7-aminoheptanoate as substrate [4] | acceptance of 7-oxoheptanoate as substrate, forming 7-aminoheptanoate [5]
1 | B1 | accepted 7-aminoheptanol as a substrate | accepted heptane-1,7-diamine as substrate | accepted N7-acetyl-1,7-diaminoheptane as a substrate | accepted 7-aminoheptanote as substrate | 
2 | B2 | accepted 7-aminoheptanol as a substrate | accepted heptane-1,7-diamine as substrate | accepted N7-acetyl-1,7-diaminoheptane as a substrate | accepted 7-aminoheptanote as substrate | accepted 7-oxoheptanoate as a substrate
